The results in this text go back to publication PMC5971111 (Nature structural & molecular biology, 2018).

What all share (assay): […]
The target in one assay is T1, Sec5 (S. cerevisiae, UniProt P89102 1-971).
T1 sequence: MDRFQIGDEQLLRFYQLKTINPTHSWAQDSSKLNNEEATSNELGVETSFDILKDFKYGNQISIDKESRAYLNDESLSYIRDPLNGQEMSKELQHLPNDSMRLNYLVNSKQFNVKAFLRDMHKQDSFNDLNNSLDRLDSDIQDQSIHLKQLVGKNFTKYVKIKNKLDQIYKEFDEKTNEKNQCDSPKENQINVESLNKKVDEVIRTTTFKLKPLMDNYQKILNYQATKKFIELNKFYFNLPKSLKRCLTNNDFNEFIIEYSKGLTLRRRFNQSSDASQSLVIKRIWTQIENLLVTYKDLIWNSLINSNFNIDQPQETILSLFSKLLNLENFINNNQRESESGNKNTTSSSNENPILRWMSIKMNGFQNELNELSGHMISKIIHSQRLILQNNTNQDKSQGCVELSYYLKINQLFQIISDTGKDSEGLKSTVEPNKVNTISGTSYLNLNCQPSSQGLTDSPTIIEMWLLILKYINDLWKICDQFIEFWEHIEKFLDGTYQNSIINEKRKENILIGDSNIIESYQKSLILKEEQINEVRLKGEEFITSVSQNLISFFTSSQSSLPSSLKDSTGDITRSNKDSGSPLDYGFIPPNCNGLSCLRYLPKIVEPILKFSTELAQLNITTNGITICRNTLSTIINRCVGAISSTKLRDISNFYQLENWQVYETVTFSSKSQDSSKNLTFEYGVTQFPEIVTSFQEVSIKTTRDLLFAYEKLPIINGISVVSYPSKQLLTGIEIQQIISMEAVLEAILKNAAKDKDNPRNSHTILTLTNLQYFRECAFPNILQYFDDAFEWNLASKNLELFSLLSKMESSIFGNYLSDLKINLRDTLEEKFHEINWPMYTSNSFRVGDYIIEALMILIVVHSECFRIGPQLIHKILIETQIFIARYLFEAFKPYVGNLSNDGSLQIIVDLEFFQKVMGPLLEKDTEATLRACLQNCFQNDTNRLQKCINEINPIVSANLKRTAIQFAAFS

In a further assay the target is T2, Sec3 (S. cerevisiae, UniProt P33332 1-1336).
T2 sequence: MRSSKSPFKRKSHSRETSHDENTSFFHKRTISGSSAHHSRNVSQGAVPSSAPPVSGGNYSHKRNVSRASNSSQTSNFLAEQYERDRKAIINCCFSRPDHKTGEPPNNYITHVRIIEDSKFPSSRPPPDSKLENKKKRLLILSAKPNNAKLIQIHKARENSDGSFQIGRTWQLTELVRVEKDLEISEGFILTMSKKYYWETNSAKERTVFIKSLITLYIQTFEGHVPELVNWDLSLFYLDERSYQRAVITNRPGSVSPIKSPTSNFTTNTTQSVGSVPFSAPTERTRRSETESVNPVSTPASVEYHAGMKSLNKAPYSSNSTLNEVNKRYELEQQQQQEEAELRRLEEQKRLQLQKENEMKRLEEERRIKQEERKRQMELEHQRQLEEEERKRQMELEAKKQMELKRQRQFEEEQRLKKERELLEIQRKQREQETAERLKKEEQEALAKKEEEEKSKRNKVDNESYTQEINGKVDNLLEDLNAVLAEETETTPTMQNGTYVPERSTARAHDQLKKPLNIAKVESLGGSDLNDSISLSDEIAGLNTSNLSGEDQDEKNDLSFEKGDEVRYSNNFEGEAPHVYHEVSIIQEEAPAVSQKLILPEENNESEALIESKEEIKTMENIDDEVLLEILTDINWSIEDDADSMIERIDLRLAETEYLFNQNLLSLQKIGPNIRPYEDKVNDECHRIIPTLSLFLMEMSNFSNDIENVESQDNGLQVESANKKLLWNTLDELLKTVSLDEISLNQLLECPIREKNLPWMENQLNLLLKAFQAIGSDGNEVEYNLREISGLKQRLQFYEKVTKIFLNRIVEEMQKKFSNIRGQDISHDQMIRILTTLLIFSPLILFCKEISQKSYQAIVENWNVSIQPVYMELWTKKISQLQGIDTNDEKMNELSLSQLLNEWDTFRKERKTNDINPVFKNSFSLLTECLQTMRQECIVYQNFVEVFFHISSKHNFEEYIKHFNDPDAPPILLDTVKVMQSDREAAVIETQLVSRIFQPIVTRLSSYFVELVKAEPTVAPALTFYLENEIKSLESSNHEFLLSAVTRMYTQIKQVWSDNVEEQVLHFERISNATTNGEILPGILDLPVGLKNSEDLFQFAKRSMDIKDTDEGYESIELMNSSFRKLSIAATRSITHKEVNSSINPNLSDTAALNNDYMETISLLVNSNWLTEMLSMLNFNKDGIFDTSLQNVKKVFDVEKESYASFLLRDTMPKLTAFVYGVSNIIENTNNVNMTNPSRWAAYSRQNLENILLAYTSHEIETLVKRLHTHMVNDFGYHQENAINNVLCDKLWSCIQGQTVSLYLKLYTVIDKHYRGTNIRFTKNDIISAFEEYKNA

The target of another assay is T3, Sec8 (S. cerevisiae, UniProt P32855 1-1065).
T3 sequence: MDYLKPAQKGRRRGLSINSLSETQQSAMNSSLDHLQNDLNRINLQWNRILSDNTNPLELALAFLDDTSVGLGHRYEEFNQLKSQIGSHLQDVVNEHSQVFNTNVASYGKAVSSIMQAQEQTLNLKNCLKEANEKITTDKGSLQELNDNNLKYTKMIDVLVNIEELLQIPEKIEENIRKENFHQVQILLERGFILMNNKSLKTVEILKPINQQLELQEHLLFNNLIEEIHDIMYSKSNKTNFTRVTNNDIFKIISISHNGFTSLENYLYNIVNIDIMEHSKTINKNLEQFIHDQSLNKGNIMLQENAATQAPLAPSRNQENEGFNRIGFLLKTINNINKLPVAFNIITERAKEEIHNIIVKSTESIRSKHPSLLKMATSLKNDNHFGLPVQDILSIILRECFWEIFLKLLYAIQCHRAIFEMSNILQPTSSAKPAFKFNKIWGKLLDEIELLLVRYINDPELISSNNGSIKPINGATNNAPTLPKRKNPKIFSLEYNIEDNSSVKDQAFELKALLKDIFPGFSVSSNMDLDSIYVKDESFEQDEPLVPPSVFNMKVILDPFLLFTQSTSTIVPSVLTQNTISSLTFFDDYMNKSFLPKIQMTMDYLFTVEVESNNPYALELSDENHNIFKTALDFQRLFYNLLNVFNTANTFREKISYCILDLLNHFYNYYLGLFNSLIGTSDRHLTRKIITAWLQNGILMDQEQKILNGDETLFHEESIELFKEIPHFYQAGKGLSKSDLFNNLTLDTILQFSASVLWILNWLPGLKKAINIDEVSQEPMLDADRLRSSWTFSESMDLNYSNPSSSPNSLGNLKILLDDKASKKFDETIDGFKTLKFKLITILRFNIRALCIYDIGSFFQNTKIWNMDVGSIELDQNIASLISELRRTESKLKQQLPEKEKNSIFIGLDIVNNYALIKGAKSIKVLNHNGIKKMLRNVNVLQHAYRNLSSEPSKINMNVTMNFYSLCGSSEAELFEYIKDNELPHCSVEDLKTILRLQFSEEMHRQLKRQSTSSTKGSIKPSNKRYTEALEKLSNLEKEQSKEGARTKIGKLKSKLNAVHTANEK

A further assay addresses T4, Sec15 (S. cerevisiae, UniProt P22224 1-910).
T4 sequence: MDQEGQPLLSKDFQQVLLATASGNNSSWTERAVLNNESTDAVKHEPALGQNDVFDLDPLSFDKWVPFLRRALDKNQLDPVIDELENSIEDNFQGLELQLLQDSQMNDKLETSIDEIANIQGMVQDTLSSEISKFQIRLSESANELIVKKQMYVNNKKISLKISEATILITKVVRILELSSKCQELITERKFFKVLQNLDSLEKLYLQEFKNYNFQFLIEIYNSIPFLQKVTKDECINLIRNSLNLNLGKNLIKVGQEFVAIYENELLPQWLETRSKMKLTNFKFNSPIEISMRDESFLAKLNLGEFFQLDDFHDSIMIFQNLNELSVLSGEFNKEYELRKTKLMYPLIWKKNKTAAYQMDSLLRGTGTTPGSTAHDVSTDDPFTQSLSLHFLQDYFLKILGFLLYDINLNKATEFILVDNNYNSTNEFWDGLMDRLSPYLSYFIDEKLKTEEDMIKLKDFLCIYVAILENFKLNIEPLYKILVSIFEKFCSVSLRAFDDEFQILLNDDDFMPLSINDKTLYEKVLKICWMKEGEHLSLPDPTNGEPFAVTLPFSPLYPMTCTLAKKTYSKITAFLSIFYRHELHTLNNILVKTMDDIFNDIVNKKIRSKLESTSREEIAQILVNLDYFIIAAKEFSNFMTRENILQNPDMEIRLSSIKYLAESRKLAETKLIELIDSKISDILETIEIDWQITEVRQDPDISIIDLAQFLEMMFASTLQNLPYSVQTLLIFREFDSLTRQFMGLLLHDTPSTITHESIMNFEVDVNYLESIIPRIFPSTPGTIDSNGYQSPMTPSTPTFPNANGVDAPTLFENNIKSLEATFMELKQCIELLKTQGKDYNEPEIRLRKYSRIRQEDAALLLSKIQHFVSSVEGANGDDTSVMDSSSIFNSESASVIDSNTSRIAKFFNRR

B1: Sec6 (natural protein)
chain: MSSDPLQQVCDLIKGDLSLERVRDIKEQLLKEKSVVEYQLNKESDKYYGEVEESLKLLNLSKNSVTSIKQQINEVNKLGNDNRFAINRYDILFRATKLYETVNTTSSIYDRIYNFVALMEHIERLLVAELAEDALETGCPHLLEIHFLLTSARDFQEQVVVMAKEATEDAQRTVMKLFSRLSGIISKFDKLLDGLTYDIVEMARAEQISLAIRLFKIYDLEEREDLRIEAIRNIIKKKEIEIEKSSIKKLPNSKNTARLQDETPKVIEYPTNKGLYQEIMSGTISTRTAPRGYKHFLINGINNSISEMFGEMREKYVGDQKFDVLDNMDWIFNELIIVKEHIANCCPPHWNIFEVYFDQYYKELHSLITDLVESEPETIIILDILAFDKTFQDTLKQDFGFTKSEVKSVIGDKEKETLFKDYLNLIVVKMTEWIGNLEKAEFDVFLERSTPPHSDSDGLLFLDGTKTCFQMFTQQVEVAAGTNQAKILVGVVERFSDLLTKRQKNWISKISEEIKKQINYNHKYDIDPESITPEDECPGGLVEYLIAVSNDQMKAADYAVAISSKYGKLVSKVYEKQITNHLEGTLDGFAEVAQCSSLGLITLMFDDLRKPYQEIFSKTWYMGSQAQQIADTLDEYLLDIKPQMNSVLFVNFIDNVIGETIIKFLTALSFEHSFKNKNNKFLEAMKRDFEIFYQLFVKVLDGNESKDTLITQNFTVMEFFMDLSCEPIDSILDIWQKYLEVYWDSRIDLLVGILKCRKDVSSSERKKIVQQATEMLHEYRRNMEANGVDREPTLMRRFVLEFEKQ
As to B1, the binding result in the assay with Sec5 and with Sec3 was “binds” in each case.

B2: Sec10 (natural protein)
chain: MNSLYELDPKWKKLLKTDNFLGGLTVNEFVQELSKDHRNDVLIDANTKNLPTNEKDQDAIREAIWKQLDPKPYIRTFESTLKELKNLNEETLNKRQYFSEQVATQEVIHSENVIKLSKDLHTTLLTFDKLDDRLTNVTQVVSPLGDKLETAIKKKQNYIQSVELIRRYNDFYSMGKSDIVEQLRLSKNWKLNLKSVKLMKNLLILSSKLETSSIPKTINTKLVIEKYSEMMENELLENFNSAYRENNFTKLNEIAIILNNFNGGVNVIQSFINQHDYFIDTKQIDLENEFENVFIKNVKFKEQLIDFENHSVIIETSMQNLINDVETVIKNESKIVKRVFEEKATHVIQLFIQRVFAQKIEPRFEVLLRNSLSISNLAYVRILHGLFTLFGKFTKSLIDYFQLLEIDDSNQILSTTLEQCFADLFSHYLYDRSKYFGIEKRSLEAILVDMTSKFTVNYDKEINKRVLLDKYKEKLSTNVDAFMHSPRGNTHSRQDSTSRSKLSQFNSFLKTHLDKDHLSLNRTNTLSDSFNNSSSSTQYDVANNSSSLVNSSFTASDIDNSPNSPANYSLNDVDSMLKCVVESTARVMELIPNKAHLYILEILKIMFLGIVDSYMEIALEVAYWKICKVDINKTAGVVNLNFLKFISMSTEILDLLSISIKSIFLPLLNNSPEIKAQIIEMTNSQIQKMEILINIILQETITVISTKFSAILCKQKKKDFVPKSQELLDQDTLPAIEIVNILNLIFEQSSKFLKGKNLQTFLTLIGEELYGLLLSHYSHFQVNSIGGVVVTKDIIGYQTAIEDWGVASLIDKFATLRELANLFTVQPELLESLTKEGHLADIGRDIIQSYISNREDFNHDNFINSVKLNFR
For the molecule B2, the binding result with Sec8, with Sec15 and with Sec3 was “binds” in each case.
